Target: T1, Bovine plasma fibronectin (bovine, UniProt P07589 33-2478)
T1 construct: fibronectin, bovine, from plasma; about 0.5 MDa, two similar subunits attached through disulfide linkages; Adsorbed unmodified on a gold surface from 20 ug/mL in PBS; source: bought: Thermo Fisher Scientific
Test: dynamic single-molecule force spectroscopy (AFM); fibronectin adsorbed on a gold surface; integrin or proteoglycan tethered by PEG to the AFM tip; PBS; trigger force 500 pN, no dwell; retraction speed varied; Bell-Evans fit of rupture force against ln(loading rate), fm = 10^7 s^-1 assumed
Conditions: both partners purified

T1 sequence (P07589 33-2478): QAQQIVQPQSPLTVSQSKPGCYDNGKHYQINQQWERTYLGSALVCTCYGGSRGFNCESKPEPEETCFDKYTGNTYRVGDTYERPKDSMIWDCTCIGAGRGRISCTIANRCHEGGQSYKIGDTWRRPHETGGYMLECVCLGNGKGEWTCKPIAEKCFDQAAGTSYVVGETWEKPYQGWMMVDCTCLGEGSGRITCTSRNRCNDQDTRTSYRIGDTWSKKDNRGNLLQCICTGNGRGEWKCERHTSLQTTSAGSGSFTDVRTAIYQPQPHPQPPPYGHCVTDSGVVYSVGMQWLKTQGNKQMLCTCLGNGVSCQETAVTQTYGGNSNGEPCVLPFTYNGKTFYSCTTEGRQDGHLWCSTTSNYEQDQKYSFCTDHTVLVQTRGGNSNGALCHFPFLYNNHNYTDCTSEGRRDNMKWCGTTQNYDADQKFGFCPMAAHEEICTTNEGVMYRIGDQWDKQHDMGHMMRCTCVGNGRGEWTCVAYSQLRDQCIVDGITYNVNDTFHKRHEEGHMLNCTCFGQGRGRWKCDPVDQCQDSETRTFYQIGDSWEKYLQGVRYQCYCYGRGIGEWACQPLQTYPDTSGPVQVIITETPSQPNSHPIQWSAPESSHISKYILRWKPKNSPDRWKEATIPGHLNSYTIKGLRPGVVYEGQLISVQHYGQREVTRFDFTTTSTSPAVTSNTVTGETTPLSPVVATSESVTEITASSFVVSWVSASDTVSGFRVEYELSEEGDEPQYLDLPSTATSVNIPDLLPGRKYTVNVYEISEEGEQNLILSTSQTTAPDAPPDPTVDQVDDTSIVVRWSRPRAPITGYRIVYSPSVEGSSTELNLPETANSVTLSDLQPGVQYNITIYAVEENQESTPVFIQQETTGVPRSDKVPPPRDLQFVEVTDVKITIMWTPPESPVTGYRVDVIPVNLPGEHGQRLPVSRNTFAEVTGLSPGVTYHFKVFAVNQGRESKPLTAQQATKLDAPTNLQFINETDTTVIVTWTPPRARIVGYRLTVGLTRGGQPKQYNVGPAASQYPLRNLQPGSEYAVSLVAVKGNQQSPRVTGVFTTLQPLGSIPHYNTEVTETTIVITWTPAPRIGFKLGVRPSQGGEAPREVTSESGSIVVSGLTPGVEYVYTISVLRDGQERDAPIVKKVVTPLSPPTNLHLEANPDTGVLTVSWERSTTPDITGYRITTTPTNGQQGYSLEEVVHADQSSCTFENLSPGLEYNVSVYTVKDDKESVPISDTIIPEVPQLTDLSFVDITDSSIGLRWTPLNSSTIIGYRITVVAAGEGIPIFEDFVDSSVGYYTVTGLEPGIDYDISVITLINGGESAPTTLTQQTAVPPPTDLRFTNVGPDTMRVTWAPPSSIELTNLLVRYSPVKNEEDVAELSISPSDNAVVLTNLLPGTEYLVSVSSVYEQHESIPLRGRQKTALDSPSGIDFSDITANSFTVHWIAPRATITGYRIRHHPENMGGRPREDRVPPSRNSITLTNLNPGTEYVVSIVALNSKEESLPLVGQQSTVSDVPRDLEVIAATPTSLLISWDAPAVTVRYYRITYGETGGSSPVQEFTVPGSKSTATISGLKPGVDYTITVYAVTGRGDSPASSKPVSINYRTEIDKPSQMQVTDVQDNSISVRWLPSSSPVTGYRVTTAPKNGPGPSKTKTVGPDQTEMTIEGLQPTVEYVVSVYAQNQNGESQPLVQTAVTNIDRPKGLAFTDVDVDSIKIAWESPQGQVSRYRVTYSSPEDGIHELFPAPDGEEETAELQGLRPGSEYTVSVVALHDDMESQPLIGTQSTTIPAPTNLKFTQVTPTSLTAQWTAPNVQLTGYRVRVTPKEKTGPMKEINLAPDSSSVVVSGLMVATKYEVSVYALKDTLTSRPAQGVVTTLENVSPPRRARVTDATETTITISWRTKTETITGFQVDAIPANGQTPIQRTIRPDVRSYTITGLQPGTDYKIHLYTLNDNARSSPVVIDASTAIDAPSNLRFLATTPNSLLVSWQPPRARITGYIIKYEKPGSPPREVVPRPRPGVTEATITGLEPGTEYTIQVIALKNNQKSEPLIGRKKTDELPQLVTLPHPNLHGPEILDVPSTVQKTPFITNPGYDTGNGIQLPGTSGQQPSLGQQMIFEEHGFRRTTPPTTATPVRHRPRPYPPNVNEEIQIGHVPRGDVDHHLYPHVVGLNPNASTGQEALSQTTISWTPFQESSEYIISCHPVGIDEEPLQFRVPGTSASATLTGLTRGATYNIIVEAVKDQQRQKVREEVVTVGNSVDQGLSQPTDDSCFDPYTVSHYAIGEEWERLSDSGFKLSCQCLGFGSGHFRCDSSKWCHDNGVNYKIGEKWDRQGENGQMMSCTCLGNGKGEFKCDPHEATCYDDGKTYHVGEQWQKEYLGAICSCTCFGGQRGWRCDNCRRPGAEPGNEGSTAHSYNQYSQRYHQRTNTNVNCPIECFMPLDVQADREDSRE

Binder | koff
Recombinant human syndecan-4 (natural protein, UniProt P31431 19-145, looked up, heparan sulfate glycosaminoglycan chains (proteoglycan); cysteines bound to the maleimide of an NHS-PEG-Mal linker on the AFM tip, syndecan-4, human, recombinant; No catalogue number printed; The R&D Systems product is probably the extracellular domain (surmised); also called SDC4; source: bought: R&D Systems) ESIRETEVIDPQDLLEGRYFSGALPDDEDVVGPGQESDDFELSGSGDLDDLEDSMIGPEVVHPLVPLDNHIPERAGSGSQVPTEPKKLEENEVIPKRISPVEESEDVSNKVSMSSTVQGSNIFERTE | 2.4 ± 0.4 s⁻¹
Recombinant human decorin (natural protein, UniProt P07585 31-359, looked up, a single chondroitin or dermatan sulfate GAG chain attached at the N-terminus (proteoglycan); cysteines bound to the maleimide of an NHS-PEG-Mal linker on the AFM tip, decorin, human, recombinant; 42-kDa core protein; No catalogue number printed; The GAG chain is told of decorin in general; source: bought: R&D Systems) DEASGIGPEVPDDRDFEPSLGPVCPFRCQCHLRVVQCSDLGLDKVPKDLPPDTTLLDLQNNKITEIKDGDFKNLKNLHALILVNNKISKVSPGAFTPLVKLERLYLSKNQLKELPEKMPKTLQELRAHENEITKVRKVTFNGLNQMIVIELGTNPLKSSGIENGAFQGMKKLSYIRIADTNITSIPQGLPPSLTELHLDGNKISRVDAASLKGLNNLAKLGLSFNSISAVDNGSLANTPHLRELHLDNNKLTRVPGGLAEHKYIQVVYLHNNNISVVGSSDFCPPGHNTKKASYSGVSLFSNPVQYWEIQPSTFRCVYVRSAIQLGNYK | 40 ± 4 s⁻¹

From publication PMC6712418, “Distinct Binding Interactions of α5β1-Integrin and Proteoglycans with Fibronectin” (Biophysical Journal, 2019)
